Data from patent US20170355770A1 (ASKGENE PHARMA, published 2017).

Legend:
human PDL2 [1] = target: T1, human PDL2 (human, UniProt Q9BQ51 20-219, limits assumed); assay: ELISA, coated human PDL2
T1 construct: Bought protein
T1 sequence (looked up): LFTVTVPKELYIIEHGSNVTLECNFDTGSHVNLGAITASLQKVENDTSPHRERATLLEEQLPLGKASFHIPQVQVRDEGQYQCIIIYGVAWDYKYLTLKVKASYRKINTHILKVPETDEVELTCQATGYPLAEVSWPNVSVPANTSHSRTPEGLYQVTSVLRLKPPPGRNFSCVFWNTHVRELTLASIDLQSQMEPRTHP

[2] = target: human PD-L1 expressed on cells (human, UniProt Q9NZQ7 19-290); assay: cell-based or functional assay
[3] = target: PD-L1 ligand (analyte of the Octet affinity measurement) (UniProt Q9NZQ7 19-238, limits assumed); assay: BLI (Octet RED 96), antibody captured on anti-human IgG sensor, PD-L1 in solution, 1:1 fit
Method: Affinity Measurement: The affinity measurement was conducted with Octet RED 96 (ForteBio) instrument at 30 degree Celsius. Briefly, anti-human IgG capture sensor (AHC from ForteBio cat #18-5060) was equilibrated with assay buffer (1× dilution of 10× Kinetics Buffer (ForteBio, Cat #18-5032). Test antibody samples were diluted to 3 ug/mL and allowed to bind to the sensors for 5 min. The sensors were then washed in assay buffer for 3 minutes, and PD-L1 ligand diluted at different concentrations were allowed to bind to the mAb coated on the sensors for 5 minutes. Afterwards, dissociation was followed for 10 minutes in the assay buffer. The sensors could be regenerated by washing in glycine buffer and assay buffer 3 times. The data were fitted with 1:1 binding model using the ForteBio software.

human PDL2 [4] = target: T1, human PDL2; assay: ELISA on coated human PDL2 (printed: hu PDL2-Fc), purified chimeric antibody [panel hu PDL2-Fc ELISA]
Method: PD-L1 binding ELISAs: B cell cloning supernatants were tested for binding to PD-L1 by ELISA. ELISA plates were coated with 100 uL antigen at 0.5 or 1 ug/mL in PBS (Life Technologies, cat. #14190-250) overnight at 4° C. or for 1 hour at 37° C. […] Plates were then blocked with PBS+10% goat serum for 1 hour. After washing with deionized water, samples were added in PBS/10% goat serum and incubated for 1 hour. […] Plates were then washed with deionized water and 100 uL TMB substrate (Thermo Scientific, cat. #PI134021) was added to each well. Development was stopped with 100 uL 1N H₂SO₄, and OD450 was measured using a microplate spectrophotometer.
Purified chimeric and humanized antibodies were tested for binding to PD-L1 by ELISA. Antigens tested include; human PD-L1-Fc, human PD-L1-his, murine PD-L1-his, and cynomolgus PD-L1-his (Sinobiological, cat. #90251-CO8H) and human PDL2 (Acrobiosystems, cat. #PD2-H5251). Protocols were the same as for testing B cell cloning supernatants except that the secondary antibodies were as follows; for human PD-L1-Fc the secondary was goat anti-human kappa-HRP (Novex, Life Technologies, cat. #A18853), for human PD-L1-his, murine PD-L1-his and cynomolgus PD-L1-his the secondary was goat anti-human IgG Fc-HRP (Jackson ImmunoResearch, cat. #109-005-098).

human PD-L1-Fc = target: T2, human PD-L1-Fc (human, UniProt Q9NZQ7 19-238, limits assumed); assay: competition ELISA: coated human PD-L1-Fc, antibody added first, then PD1-his, detected with anti-His-HRP
T2 construct: Bought fusion protein; not shown: Fc part
T2 sequence (Q9NZQ7 19-238 limits assumed): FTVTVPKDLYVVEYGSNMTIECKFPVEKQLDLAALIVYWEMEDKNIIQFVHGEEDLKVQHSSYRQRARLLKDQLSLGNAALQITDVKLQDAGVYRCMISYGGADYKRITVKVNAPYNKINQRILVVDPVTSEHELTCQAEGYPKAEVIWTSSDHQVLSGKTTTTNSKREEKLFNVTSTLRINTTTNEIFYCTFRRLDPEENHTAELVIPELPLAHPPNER

PD-L1 ligand (analyte of the Octet affinity measurement), sequence (Q9NZQ7 19-238 limits assumed): as above
human PD-L1 expressed on cells, sequence (Q9NZQ7 19-290): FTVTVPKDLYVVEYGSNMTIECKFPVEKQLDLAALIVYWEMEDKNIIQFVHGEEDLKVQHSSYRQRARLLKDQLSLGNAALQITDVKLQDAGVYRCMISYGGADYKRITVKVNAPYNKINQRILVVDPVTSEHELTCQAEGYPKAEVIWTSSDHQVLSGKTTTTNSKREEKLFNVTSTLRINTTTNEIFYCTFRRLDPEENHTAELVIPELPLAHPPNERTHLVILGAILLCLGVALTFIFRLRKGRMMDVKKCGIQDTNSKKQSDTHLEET

B1: chimeric anti-PD-L1 antibody 111H2 (antibody, V domains shown)
VH: QEQLVESGGGLVQPGGTLKLSCKGSGFDLSSNAMCWVRQAPGKGLEWIGCIVYGNCYYASWVNGRFTISSDNAQSSVDLQLNSLTAADTATYFCARDPAGSSVYTGGFNIWGPGTLVTVSS
VL: AIDMTQTPSPVSAAVGDTVTINCQASENIYSFLAWYQQKPGHSPKPLIYFASKLASGVPSRFKGSGSGTQFTLTISDVQCDDAATYYCQQTVSYKNADTAFGGGTKVVVVR
notes: also called chimeric anti-PD-L1 111H2 antibody
binding result (human PDL2 [1]): no binding | EC50 of the rise of luciferase activity, PD1/PD-L1 blockade reporter assay (CHO-K1/TCRA/PD-L1 cells with PD1/NFAT Jurkat cells); column Chimeric of the table under the plot [2]: 0.0483 µg/mL | Kd [3]: 0.183 nM | koff [3]: 0.000197 s⁻¹ | kon [3]: 1.07e+06 M⁻¹ s⁻¹

B2: chimeric anti-PD-L1 antibody 115C1 (antibody, V domains shown)
VH: CQSVKESEGGLFKPTDTLTLTCTVSGFSLSSVAVSWVRQAPGKGLEWIGTISYTGNTYYASWAKSRSTITRNTNENTVTLKMPSLTVADTATYFCAKEILYYGMDFWGPGTLVTVSS
VL: DIVMTQTPSSVSAAVGGTVTINCQASQSISSYLAWYQQKPGQPPKLLIYGASNLESGVPSRFKGSGSGTDFTLTISDLECADAATYYCQSTYGSTSTSDYGNAFGGGTKVVVVR
binding result (human PDL2 [4]): no binding (tested: 4 µg/mL) | Kd [3]: 0.051 nM | koff [3]: 2.08e-05 s⁻¹ | kon [3]: 455000 M⁻¹ s⁻¹

B3: chimeric anti-PD-L1 antibody 116F3 (antibody, V domains shown)
VH: CQSVKESEGGLFKPTDTLTLTCTVSGIDLSSISIGWVRQAPGNGLEWIGTISDSGSAYYASWAKSRSTITRNTNENTVTLKMTSLTAADTASYFCAKEILYYGMDLWGPGTLVTVSS
VL: DVVMTQTPASVSGAVGGTVTIKCQASEDIESYLAWYQQKPGQPPKLLIYAASNLEPGVPSRFKGSRSGTEYTLTITDLECDDAATYHCQATYGSTSSSDYGNAFGGGTKVVVVR
binding result (human PDL2 [4]): no binding (tested: 4 µg/mL) | IC50 (read off the curve) (human PD-L1-Fc): ~0.2 µg/mL | Kd [3]: < 0.001 nM | koff [3]: < 1e-07 s⁻¹ | kon [3]: 682000 M⁻¹ s⁻¹

B4: chimeric anti-PD-L1 antibody 115E2 (antibody, V domains shown)
VH: CQSVKESEGGLFKPMDTLTLTCTVSGIDLGSVAISWVRQAPGKGLEWIGTIGSSGSAYYASWAKSRSTITRNTNLNTVTLKMTSLTAADTASYFCAKEILYYGMDRWGPGTLVTVSS
VL: DVVMTQTPASVEASVGGTVTINCQASQSISSYLAWYQQKPGQPPKLLIYAASNLEPGVPSRFKGSGSGTEFTLTISDLECADAATYYCQATYGSTSSSDYGNAFGGGTKVVVVR
binding result (human PDL2 [4]): no binding (tested: 4 µg/mL) | Kd [3]: 0.1 nM | koff [3]: 4.99e-05 s⁻¹ | kon [3]: 532000 M⁻¹ s⁻¹

B5: chimeric anti-PD-L1 antibody 110H8 (antibody, V domains shown)
VH: CQSVKESEGGLFKPTDTLTLTCTVSGIDLSSVSISWVRQAPGNGLEWIGTIGASGSAYYASWAKRRSTITRNTNLNTVTLKMTSLTAADTASYFCAKEILYYGMDLWGPGTLVTVSS
VL: DVVMTQTPASVEAAVGGTVTIKCQASQSISNYLAWYQQKPGQRPKLLIYAASNLEPGVPSRFKGSGSGTEYTLTITDLECDDAATYHCQCTYGSTSSSDYGNAFGGGTKVVVVR
binding result (human PDL2 [1]): no binding | Kd [3]: < 0.001 nM | koff [3]: < 1e-07 s⁻¹ | kon [3]: 755000 M⁻¹ s⁻¹

B6: chimeric anti-PD-L1 antibody 110B4 (antibody, V domains shown)
VH: CQSVKESEGGLFKPTDTLTLTCKVSGIDLSSISISWVRQAPGNGLEWIGVINSYGNTYYASWAKSRSTITRNTNENTVTLKMTSLTAADTATYFCAKEILYYGMDLWGPGTLVTVSS
VL: DVVMTQTPASVEAAVGGTVTIKCQASQSISSYFSWYQQKPGQRPKLLIYDASNLESGVPSRFKGSRSGTEYTLTISDLEWDDAATYYCQCTYGSTSSSNYGNNFGGGTKVVVVR
binding result (human PDL2 [1]): no binding | Kd [3]: 0.173 nM | koff [3]: 6.87e-05 s⁻¹ | kon [3]: 404000 M⁻¹ s⁻¹

B7: chimeric anti-PD-L1 antibody 113F1 (antibody, V domains shown)
VH: CQSVKESEGGLFKPTDTLTLTCTVSGIDLSSIAISWVRQAPGNGLEWIGTINSYGSTYYASWAQSRSTITRNTNENTVTLKMTSLTAADTASYFCAKEILYYGMDVWGPGTLVTVSS
VL: DVVMTQTPASVEAAVGGTVTIKCQASQSISSYLAWYQQKPGQPPKLLIYAASNLESGVPSRFKGSGSGTEYTLTISDLECDDAATYYCQSTYGTTSTSDYGNAFGGGTKVVVVR
binding result (human PDL2 [4]): no binding (tested: 4 µg/mL) | Kd [3]: 0.115 nM | koff [3]: 3.78e-05 s⁻¹ | kon [3]: 362000 M⁻¹ s⁻¹
